Data taken from patent US20030073808A1 (KIMBERLY CLARK WORLDWIDE, published 2003).
Primed or numbered codes have the meaning given here. Where no end group is shown, it is not given here. PSDE = pyridine disulfide ethylenediaminetetraacetic acid; AFTA = 2-amino-4-fluorophenol N,N,O-triacetic acid; AFTA″ = not defined here

B1: ChePep-1 (PSDE coupled with the peptide having SEQ ID No. 4) (peptide)
peptide: C(PSDE)SAVPVH
notes: Synthetic TIMP-derived peptide covalently coupled to a small-molecule zinc chelator (PSDE); also called ChepPep-1; zinc chelating peptide
B2: ChePep-2 (IDA coupled with a peptide having SEQ ID No. 5) (peptide)
peptide: D(IDA)SAVPVH-NH2
B3: ChePep-3 (PSDE combined with a peptide having SEQ ID No. 6) (peptide)
peptide: IYTAC(PSDE)MSAV
modifications: not fully specified (C-terminus)
B4: ChePep-5 (AFTA combined with a peptide having SEQ ID No. 7) (peptide)
peptide: {AFTA}-VHTHLCD
notes: also called ChepPep-5
B5: ChePep-6 (AFTA combined with a peptide having SEQ ID No. 8) (peptide)
peptide: {AFTA″}-CTCVP
modifications: cysteine pairing not given here; reading uncertain
notes: also called ChepPep-6; chelating peptide (CP)

How the values were obtained:
Active MMP-9 enzyme [1] = molecular target: T1, Active MMP-9 enzyme (UniProt P14780 107-707, limits assumed); test: enzyme inhibition of MMP-9 (fluorescent substrate cleavage, inhibitory constants derived from the curves)
T1 construct: Bought as 'Active MMP-9 enzyme' from Calbiochem
T1 sequence (P14780 107-707 limits assumed): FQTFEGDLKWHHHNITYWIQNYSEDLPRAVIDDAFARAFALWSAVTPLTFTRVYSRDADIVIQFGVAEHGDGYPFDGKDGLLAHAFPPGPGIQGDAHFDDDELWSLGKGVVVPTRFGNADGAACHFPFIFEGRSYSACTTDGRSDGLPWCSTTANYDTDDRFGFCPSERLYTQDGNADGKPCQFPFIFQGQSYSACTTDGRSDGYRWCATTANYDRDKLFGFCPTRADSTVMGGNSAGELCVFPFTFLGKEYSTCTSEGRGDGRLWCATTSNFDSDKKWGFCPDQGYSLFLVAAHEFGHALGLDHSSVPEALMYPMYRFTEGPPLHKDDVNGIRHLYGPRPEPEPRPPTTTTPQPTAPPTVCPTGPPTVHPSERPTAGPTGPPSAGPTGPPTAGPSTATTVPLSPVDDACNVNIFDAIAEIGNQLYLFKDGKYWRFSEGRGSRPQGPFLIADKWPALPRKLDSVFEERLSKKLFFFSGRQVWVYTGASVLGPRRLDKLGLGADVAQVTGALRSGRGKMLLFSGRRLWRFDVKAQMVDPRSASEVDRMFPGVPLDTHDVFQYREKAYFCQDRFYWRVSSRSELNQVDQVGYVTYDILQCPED
Method: Two enzymatic assays were performed. The first assay measured the enzymatic hydrolysis of fluoresceinated collagen by MMP-9 as a function of time. Fluoresceinated collagen (Molecular Probes, Inc.), at a concentration of 5 μM was added to reaction buffer (50 mM Tris-HCl (pH 7.6), 150 mM NaCl, 5 mM CaCl₂, 0.1 mM NaN₃) and was placed into a Spectrosil quartz fluorometer cuvette. MMP at a concentration of 0.1 μM was mixed with varying amounts of chelating peptide having SEQ ID No. 4 or 6 and incubated at 25° C. for 10 minutes to effect binding. The protein mixture was added to the collagen substrate and mixed quickly. Fluorescence emission intensity at 520 nm was measured as a function of time (excitation wavelength 495 nm) in a Shimadzu RF5301 fluorometer. The fluorescein release assay was used to determine the inhibitory constant (Kᵢ) of the chelating peptide inhibitor ([I]) according to Segel (1993) via the use of Dixon plots (1/v vs. [I]), such that: […]

Active MMP-9 enzyme [2] = molecular target: T1, Active MMP-9 enzyme; test: enzyme inhibition of MMP-9 (FRET substrate peptide cleavage, inhibitory constants derived from the curves)
Method: FIG. 4 illustrates ChePep-5 regulation of MMP-9 via FRET assay. ChePep-5 is composed of a AFTA combined with a peptide having SEQ ID No. 7. ChePep-5 was incubated with MP-9 for 10 minutes to effect binding. This mixture was added to the FRET substrate peptide in reaction buffer. Fluorescence measurements were made at the indicated times. The curves represent ChepPep-5: MMP-9 molar stoichiometries of 0:1 (closed circles), 0.1:1 (open circles), 0.2:1 (closed squares), 0.3:1 (open squares). Excitation was at 365 nm, and the emission was fixed at 450 nm.
The second assay utilized the technique of fluorescence resonance energy transfer (FRET). The substrate peptide (Calbiochem #444221) comprised seven amino acids, coupled to a carboxyl terminal dinitrophenyl acceptor, and an amino terminal 2-aminobenzo-anthraniloyl (Abz) moiety donor. Cleavage of this substrate by MMP-9 results in the liberation of a fluorescent product (365 nm excitation, 450 nm emission). […] MMP at a concentration of 0.1 μM was mixed with varying amounts of chelating peptide (0, 0.01, 0.02, 0.04, and 0.1 μM) and incubated at 25° C. for 10 minutes to effect binding. The protein mixture was added to the peptide substrate and mixed quickly. Fluorescence intensity as a function of time was measured with a Dynex MFX fluorescence microtiter plate reader. Fluorescence intensity was related back to moles of peptide cleaved by producing a standard curve with an Abz containing non-FRET peptide. Inhibitory constants were derived from the curves and are listed below in Table 2.

Row | Binder | Ki (Active MMP-9 enzyme [1]) [µM] | Ki (Active MMP-9 enzyme [2]) [µM]
1 | B1 | 98 | 
2 | B2 |  | 67
3 | B3 |  | 350
4 | B4 |  | 221
5 | B5 |  | 125
